Here are results for one molecule from US20210403582A1 (JACOBIO PHARMACEUTICALS, published 2021).

For orientation: EC50 (read off the curve) means the concentration that produces a half-maximal response. A lower EC50 (read off the curve) goes with a more potent agent.

Assay [1] deals with T1, human LIF protein (human, UniProt P15018 23-202).
T1 construct: Bought recombinant protein (Sino Biological / Yiqiao Shenzhou 14890-HNAH) in most assays; also called recombinant human LIF protein; rhLIF
The assay is described as follows: ELISA, human LIF coated at 1 µg/mL, A450. As for the experimental part: The recombinant human LIF protein was diluted to 1 μg/mL, was coated on the enzyme label plate, 100 μL of the protein was added into every well, and incubated overnight in 4° C. The enzyme label plates were taken out next day, and the liquid was discarded, and were washed with PBST three times and blocked with 2% BSA in PBS for 1 h at room temperature, then washed with PBST three times, and added anti-human LIF antibodies 38E10E1C11, 5D8 and P36-033 at different concentrations and incubated for 1 h at room temperature. The liquid was discarded, and the plates were washed with PBST four times. The plates were added with HRP-labeled goat anti-mouse Fab antibody or goat anti-human FC antibody and incubated for 1 h at room temperature. Then the liquid was discarded, and the plates were washed four times with PBST and incubated with TMB colored solution in 10 minutes at room temperature. Stop color development by adding 2 mol/L H₂SO₄, and the absorption value at 450 nm is quantitated using an automated plate photometer, and the results were shown in FIG. 1.
Background: ELISA stands for enzyme-linked immunosorbent assay.

The target of assay [2] is recombinant mouse LIF protein (mouse, UniProt P09056 24-203). Nature of the assay: ELISA, mouse LIF coated at 1 µg/mL, A450. The procedure:
The recombinant mouse LIF protein (purchased from ACRO Biosystems) was diluted to 1 μg/mL, and was coated on the enzyme label plate, 100 μL of protein was added into every well, and incubated overnight in 4° C. The enzyme label plates were taken out next day, and the liquid was discarded, and were washed with PBST three times and blocked with 2% BSA in PBS for 1 h at room temperature, then washed with PBST three times, and added anti-human LIF antibodies 38E10E1C11, 5D8 and P36-033 at different concentrations and incubated for 1 h at room temperature. The liquid was discarded, and the plates were washed with PBST four times. The plates were added with HRP-labeled goat anti-mouse Fab antibody or goat anti-human FC antibody and incubated for 1 h at room temperature. Then the liquid was discarded, and the plates were washed four times with PBST and incubated with TMB colored solution in 10 minutes at room temperature. Stop color development by adding 2 mol/L H₂SO₄, and the absorption value at 450 nm is quantitated using an automated plate photometer, and the results were shown in FIG. 2.

The target in another assay is T2, human OSM (human, UniProt P13725 26-221, limits assumed).
T2 sequence (looked up): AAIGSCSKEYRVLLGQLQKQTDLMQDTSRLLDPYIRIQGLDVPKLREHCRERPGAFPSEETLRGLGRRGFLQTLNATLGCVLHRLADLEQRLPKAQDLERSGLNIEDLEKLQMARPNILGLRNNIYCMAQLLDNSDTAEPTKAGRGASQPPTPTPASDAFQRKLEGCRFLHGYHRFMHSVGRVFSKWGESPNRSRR
Nature of the assay: ELISA, human OSM coated at 1 µg/mL, A450. The procedure:
(§1) The human LIF, human IL-6, human OSM, human CNTF (purchased from Sino biological) were coated on the enzyme label plate at a concentration of 1 μg/mL separately, and the anti-human LIF antibodies 38E10E1C11, P36-033 and 5D8 at different concentrations were added separately and incubated for 1 h at room temperature. Then the plates were washed four times with PBST and incubated with HRP-labeled goat anti-mouse FC secondary antibody for 1 h at room temperature. Then the plates were washed four times with PBST and added with TMB colored solution for color development at room temperature for 10 minutes. The absorption value at 450 nm is quantitated by the enzyme-labeling measuring instrument, and the data was analyzed and plotted using Origin pro 9 software.

The target of a further assay is T3, human CNTF (human, UniProt P26441 1-200, limits assumed).
T3 sequence (looked up): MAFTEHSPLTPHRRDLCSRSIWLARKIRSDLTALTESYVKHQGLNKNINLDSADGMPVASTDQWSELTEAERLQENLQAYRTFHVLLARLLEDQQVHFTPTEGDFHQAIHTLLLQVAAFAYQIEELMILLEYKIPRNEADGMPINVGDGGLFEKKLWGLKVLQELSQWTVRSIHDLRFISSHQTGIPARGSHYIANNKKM
The assay is described as follows: ELISA, human CNTF coated at 1 µg/mL, A450. As for the experimental part:
as §1

For the next assay, the target named is human IL-6 (human, UniProt P05231 30-212, limits assumed). The assay is described as follows: ELISA, human IL-6 coated at 1 µg/mL, A450. As for the experimental part:
as §1

The target in assay [3] is T1, human LIF protein. The assay is described as follows: competition ELISA: human LIF coated at 1 µg/mL, GP130-Fc 20 µg/mL added together with the antibody, A450. The procedure:
The recombinant human LIF protein was coated on the enzyme label plates at a concentration of 1 μg/mL, GP130 protein (expressed fusedly with human FC) at a concentration of 20 μg/mL was added (50 μL/well), and the anti-human LIF antibodies P36-033 and 38E10E1C11 at different concentrations simultaneously were added separately (50 μL/well), and incubated for 2 h at room temperature. At the same time, the control wells added with antibodies and without GP130 protein were set. Incubated for 2 h at room temperature. After washed four times with PBST, incubated with HRP-labeled goat anti-mouse FC secondary antibody for 1 h at room temperature. Then the plates were washed four times with PBST and added with TMB coloured solution in for 10 minutes. The absorption value at 450 nm is quantitated using an enzyme-labelling measuring instrument, and the data was analyzed and plotted using Origin pro 9 software.

The target in assay [4] is T1, human LIF protein. The assay is described as follows: competition ELISA: human LIF coated at 1 µg/mL, GP130-Fc 12 µg/mL added together with the antibody, HRP anti-human Fc, A450.

T1 sequence (P15018 23-202 limits assumed): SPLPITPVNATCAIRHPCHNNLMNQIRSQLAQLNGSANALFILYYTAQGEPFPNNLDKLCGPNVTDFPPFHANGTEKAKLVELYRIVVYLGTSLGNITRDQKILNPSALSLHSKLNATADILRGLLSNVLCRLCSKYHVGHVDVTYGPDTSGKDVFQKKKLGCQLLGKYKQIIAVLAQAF
Chain of human IL-6 (P05231 30-212 limits assumed): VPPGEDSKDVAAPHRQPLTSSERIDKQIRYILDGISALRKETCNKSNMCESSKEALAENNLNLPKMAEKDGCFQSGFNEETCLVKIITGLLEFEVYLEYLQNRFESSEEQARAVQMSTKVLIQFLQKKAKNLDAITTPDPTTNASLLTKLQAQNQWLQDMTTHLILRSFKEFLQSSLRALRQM

B1: P36-033 antibody (antibody, mouse IgG1, kappa, V domains shown)
VH: EVMLVESGGGLVQPGGSRRLSCAASGFTFSSYPMFWVRQTPEKRMEWVAYISNGGDSTYYPDTVKGRFTVSRDNAKNTLYLQMSSLKSVDTAIYYCVRPSARYDEWFAYWGQGTLVTVSA
VL: DIVMTQSHKFMSTSVGDRVSITCKASQDVSNAVAWYQQKPGQSPRLLIYWASFRHTGVPDRFTGSGSGTEYTLTISRVQAEDLALYYCQQHYNTPYTFGGGTRLEIKR
notes: From a phage display library of immunised mice; full-length chains with mouse constant regions; also called P36-033 mAb
In the case of B1, in the assay with human LIF protein [1], the “EC50 (read off the curve)” value was approximately 0.05 µg/mL. Also, the binding result is “binds” in assay [2], “no binding (tested: 25 ug/ml)” with human OSM, “no binding (tested: 25 ug/ml)” with human CNTF and “no binding (tested: 25 ug/ml)” with human IL-6. The “IC50 (read off the curve)” value in the assay with human LIF protein [3] and with human LIF protein [4] was approximately 0.1 µg/mL throughout.
